We go through 5 molecules from article PMC8534323, “Proteinous Components of Neutrophil Extracellular Traps Are Arrested by the Cell Wall Proteins of Candida albicans during Fungal Infection, and Can Be Used in the Host Invasion” (Cells, 2021).

The chains are these.
B1: Als3 (agglutinin-like sequence protein 3), isolated from the surface of C. albicans (natural protein)
chain: KTITGVFNSFNSLTWSNAATYNYKGPGTPTWNAVLGWSLDGTSASPGDTFTLNMPCVFKFTTSQTSVDLTAHGVKYATCQFQAGEEFMTFSTLTCTVSNTLTPSIKALGTVTLPLAFNVGGTGSSVDLEDSKCFTAGTNTVTFNDGGKKISINVDFERSNVDPKGYLTDSRVIPSLNKVSTLFVAPQCANGYTSGTMGFANTYGDVQIDCSNIHVGITKGLNDWNYPVSSESFSYTKTCSSNGIFITYKNVPAGYRPFVDAYISATDVNSYTLSYANEYTCAGGYWQRAPFTLRWTGYRNSDAGSNGIVIVATTRTVTDSTTAVTTLPFDPNRDKTKTIEILKPIPTTTITTSYVGVTTSYSTKTAPIGETATVIVDIPYHTTTTVTSKWTGTITSTTTHTNPTDSIDTVIVQVPSPNPTVTTTEYWSQSFATTTTITGPPGNTDTVLIREPPNHTVTTTEYWSESYTTTSTFTAPPGGTDSVIIKEPPNPTVTTTEYWSESYTTTTTVTAPPGGTDTVIIREPPNHTVTTTEYWSQSYTTTTTVIAPPGGTDSVIIREPPNPTVTTTEYWSQSYATTTTITAPPGETDTVLIREPPNHTVTTTEYWSQSYATTTTITAPPGETDTVLIREPPNHTVTTTEYWSQSYTTTTTVIAPPGGTDSVIIKEPPNPTVTTTEYWSQSYATTTTITAPPGETDTVLIREPPNHTVTTTEYWSQSYATTTTITAPPGETDTVLIREPPNHTVTTTEYWSQSFATTTTVTAPPGGTDTVIIREPPNHTVTTTEYWSQSFATTTTIIAPPGETDTVLIREPPNPTVTTTEYWSQSYTTATTVTAPPGGTDTVIIYDTMSSSEISSFSRPHYTNHTTLWSTTWVIETKTITETSCEGDKGCSWVSVSTRIVTIPNNIETPMVTNTVDTTTTESTLQSPSGIFSESGVSVETESSTFTTAQTNPSVPTTESEVVFTTKGNNGNGPYESPSTNVKSSMDENSEFTTSTAASTSTDIENETIATTGSVEASSPIISSSADETTTVTTTAESTSVIEQQTNNNGGGNAPSATSTSSPSTTTTANSDSVITSTTSTNQSQSQSNSDTQQTTLSQQMTSSLVSLHMLTTFDGS
notes: source: purified from C. albicans ATCC 10231 hyphae cell wall extract (β-1,3-glucanase and 2-mercaptoethanol; MonoQ, Superdex-200)

Common to all, as to conditions: both partners purified
One test has as its target histone H4 (human, UniProt P62805 1-103). The test can be described thus: ELISA-like microplate ligand-binding assay.
The target in test [1] is B1. The test is described as follows: SPR.
The next test deals with T1, lactotransferrin (LF) (human, UniProt P02788 20-710, NHS-fluorescein label in flow cytometry; sulfo-SBED crosslinker in the cross-linking experiment).
T1 construct: also called lactoferrin; source: bought: Sigma
The test can be described thus: SPR.

T1 sequence (P02788 20-710): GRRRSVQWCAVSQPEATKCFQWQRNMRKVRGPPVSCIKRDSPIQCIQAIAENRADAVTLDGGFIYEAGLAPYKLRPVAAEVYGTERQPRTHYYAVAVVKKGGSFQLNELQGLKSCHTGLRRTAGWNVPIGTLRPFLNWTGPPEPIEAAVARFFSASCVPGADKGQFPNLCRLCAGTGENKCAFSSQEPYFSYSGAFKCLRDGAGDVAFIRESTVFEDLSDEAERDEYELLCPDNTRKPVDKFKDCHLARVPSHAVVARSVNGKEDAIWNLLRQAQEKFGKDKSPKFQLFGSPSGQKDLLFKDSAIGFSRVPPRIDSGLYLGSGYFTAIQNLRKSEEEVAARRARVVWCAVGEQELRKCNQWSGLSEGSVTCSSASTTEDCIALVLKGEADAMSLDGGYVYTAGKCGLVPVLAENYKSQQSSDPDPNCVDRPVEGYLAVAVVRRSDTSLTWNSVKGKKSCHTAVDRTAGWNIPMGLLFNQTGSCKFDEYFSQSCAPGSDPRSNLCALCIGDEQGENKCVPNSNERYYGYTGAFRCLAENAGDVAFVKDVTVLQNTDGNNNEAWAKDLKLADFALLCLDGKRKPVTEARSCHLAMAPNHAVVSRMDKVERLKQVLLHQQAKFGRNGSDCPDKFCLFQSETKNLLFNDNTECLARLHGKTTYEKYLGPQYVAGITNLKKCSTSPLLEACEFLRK

Regarding B1, in the test with histone H4, the affinity, expressed as Kd, was 820 ± 330 nM.

B2: human neutrophil elastase (HNE) (enzyme, UniProt P08246 30-267, looked up)
chain: IVGGRRARPHAWPFMVSLQLRGGHFCGATLIAPNFVMSAAHCVANVNVRAVRVVLGAHNLSRREPTRQVFAVQRIFENGYDPVNLLNDIVILQLNGSATINANVQVAQLPAQGRRLGNGVQCLAMGWGLLGRNRGIASVLQELNVTVVTSLCRRSNVCTLVRGRQAGVCFGDSGSPLVCNGLIHGIASFVRGGCASGLYPDAFAPVAQFVNWIDSIIQRSEDNPCPHPRDPDPASRTH
modifications: sulfo-SBED crosslinker in the cross-linking experiment; in flow cytometry preincubated or not with 10 µM N-(Methoxysuccinyl)-Ala-Ala-Pro-Val-chloromethyl ketone
notes: source: bought: Biocentrum (Kraków, Poland)
Regarding B2, in test [1], the Kd came to 65 ± 5.3 nM.

B3: triosephosphate isomerase 1 (Tpi1) (enzyme, UniProt Q9P940 1-248, looked up)
chain: MARQFFVGGNFKANGTKQQITSIIDNLNKADLPKDVEVVICPPALYLGLAVEQNKQPTVAIGAQNVFDKSCGAFTGETCASQILDVGASWTLTGHSERRTIIKESDEFIAEKTKFALDTGVKVILCIGETLEERKGGVTLDVCARQLDAVSKIVSDWSNIVVAYEPVWAIGTGLAATPEDAEETHKGIRAHLAKSIGAEQAEKTRILYGGSVNGKNAKDFKDKANVDGFLVGGASLKPEFVDIIKSRL
notes: source: purified from C. albicans ATCC 10231 hyphae cell wall extract (MonoQ, Superdex-200); for cross-linking: endogenous, in that extract
In the test with lactotransferrin (LF), B3 displayed a Kd of 163 ± 0.2 nM.

B4: Phosphoglycerate mutase 1 (Gpm1), recombinant (enzyme)
chain: MPKLVLVRHGQSEWNEKNLFTGWVDVRLSETGQKEAKRAGELLKEAGINVDVLHTSKLSRAIQTANIALDAADQLYVPVKRSWRLNERHYGALQGKDKAQTLEAYGQEKFQIWRRSFDVPPPKIDPKDEYSQVGDRRYADVDPAVVPLTESLALVIDRLLPYWQDEIAGDLLAGKVVLIAAHGNSLRALVKHLDNISDEDIAGLNIPTGIPLVYELDENLKPTKPSYYLDPEAAAAGAAAVAAQGQKK
Turning to B4, the affinity in the test with histone H4, expressed as Kd, was 1900 ± 414 nM.

B5: enolase (Eno1) (enzyme)
chain: MSYATKIHARYVYDSRGNPTVEVDFTTDKGLFRSIVPSGASTGVHEALELRDGDKSKWLGKGVLKAVANVNDIIAPALIKAKIDVVDQAKIDEFLLSLDGTPNKSKLGANAILGVSLAAANAAAAAQGIPLYKHIANISNAKKGKFVLPVPFQNVLNGGSHAGGALAFQEFMIAPTGVSTFSEALRIGSEVYHNLKSLTKKKYGQSAGNVGDEGGVAPDIKTPKEALDLIMDAIDKAGYKGKVGIAMDVASSEFYKDGKYDLDFKNPESDPSKWLSGPQLADLYEQLISEYPIVSIEDPFAEDDWDAWVHFFERVGDKIQIVGDDLTVTNPTRIKTAIEKKAANALLLKVNQIGTLTESIQAANDSYAAGWGVMVSHRSGETEDTFIADLSVGLRSGQIKTGAPARSERLAKLNQILRIEEELGSEAIYAGKDFQKASQL
notes: source: purified from the cytosolic fraction of C. albicans cells (MonoQ, MonoS); for cross-linking: endogenous, in the cell wall protein extract of C. albicans hyphae
Turning to B5, in the test with histone H4, binding was characterised by a dissociation constant (Kd) of 384 ± 130 nM.
